Data on one substance can be found in patent US20260242454A1.

For assay [1], the target named is recombinant human TGF-β1 (human) (UniProt P01137). The assay is described as follows: ELISA, TGF-β1 coated on plate, anti-human IgG Fc-HRP detection.
In assay [2] the target is recombinant human TGF-β3 (human) (UniProt P10600). The assay is described as follows: ELISA, TGF-β3 coated on plate, anti-human IgG Fc-HRP detection.
UniProt P10600, sequence (P10600 301-412 limits assumed): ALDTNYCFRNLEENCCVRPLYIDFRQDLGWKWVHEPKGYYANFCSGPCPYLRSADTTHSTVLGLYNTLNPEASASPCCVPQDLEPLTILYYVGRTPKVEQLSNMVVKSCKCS

UniProt P01137, sequence (P01137 279-390 limits assumed): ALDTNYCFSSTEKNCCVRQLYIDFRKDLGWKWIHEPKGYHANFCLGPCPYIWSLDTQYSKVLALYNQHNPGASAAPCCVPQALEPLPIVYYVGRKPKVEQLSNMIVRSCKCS

In the case of M7824, the EC50 in assay [1] is 2.08 nM; in assay [2] it was 3.32 nM.
